# ± gives the uncertainty stated by the source.
# B1: COUP transcription factor 1, residues 83 to 159; numbered along this chain, P10589 (parent)
# chain: HIECVVCGDKSSGKHYGQFTCEGCKSFFKRSVRRNLTYTCRANRNCPIDQHHRNQCQYCRLKKCLKVGMRREAVQRG
# Variants of: B1
# Experiment: abundance fitness (aPCA) (normalised: wild type 0, dead -1); higher = more abundant; growth selection in yeast, the domain comes from the species named
# Conditions: Homo sapiens
row,Variant,abundance fitness
1,V32W,-0.784 ± 0.12
2,V32I,-0.089 ± 0.11
3,V32D,-0.265 ± 0.1
4,V32R,-0.66 ± 0.081
5,V32E,-0.072 ± 0.067
6,V32M,0.072 ± 0.074
7,V32Q,-0.299 ± 0.1
8,V32A,-0.151 ± 0.04
9,C56Y,-0.612 ± 0.35
10,C56M,-0.636 ± 0.17
11,C56P,-1 ± 0.27
12,C56H,-0.6 ± 0.2
13,C56K,-0.926 ± 0.29
14,C56D,-0.815 ± 0.28
15,G17H,-0.459 ± 0.24
16,G17M,-0.703 ± 0.42
17,G17V,-0.421 ± 0.069
18,K10F,-0.029 ± 0.11
19,K10T,0.056 ± 0.06
20,K10A,-0.332 ± 0.06
21,K62H,-0.198 ± 0.083
22,K62A,0.044 ± 0.036
23,K62I,0.189 ± 0.068
24,Q18W,-0.459 ± 0.097

row,Variant,abundance fitness
1,Q18R,-0.041 ± 0.053
2,Q18T,-0.137 ± 0.25
3,Y58E,0.027 ± 0.04
4,Y58M,-0.312 ± 0.063
5,Y58A,0.017 ± 0.037
6,Y58G,-0.18 ± 0.034
7,Q55A,-0.02 ± 0.042
8,Q55K,-0.021 ± 0.073
9,Q55I,0.006 ± 0.06
10,Q55E,0.19 ± 0.053
11,Q55F,0.069 ± 0.063
12,H51E,-0.041 ± 0.051
13,H51V,-0.051 ± 0.041
14,G13T,-0.115 ± 0.055
15,G13L,-0.358 ± 0.054
16,G13N,-0.068 ± 0.11
17,G13V,-0.288 ± 0.059
18,G13A,0.171 ± 0.04
19,G13R,-0.243 ± 0.049
20,H1S,-0.33 ± 0.18
21,H1Q,0.121 ± 0.12
22,H1V,-0.035 ± 0.15
23,K14Q,0.274 ± 0.2
24,K14N,0.019 ± 0.39

row,Variant,abundance fitness
1,K14E,0.417 ± 0.11
2,K14Y,-0.068 ± 0.5
3,K14H,0.524 ± 0.29
4,D49Q,-0.083 ± 0.078
5,D49N,-0.003 ± 0.052
6,D49I,-0.199 ± 0.1
7,D49P,-0.323 ± 0.067
8,D49Y,-0.261 ± 0.078
9,H52G,0.035 ± 0.043
10,H52W,-0.263 ± 0.075
11,R34C,-0.759 ± 0.34
12,P47A,-0.008 ± 0.045
13,P47S,-0.172 ± 0.063
14,P47K,-0.035 ± 0.079
15,P47T,-0.14 ± 0.063
16,P47G,-0.153 ± 0.044
17,P47F,-0.023 ± 0.1
18,R71G,-0.083 ± 0.034
19,R71K,0.104 ± 0.049
20,R71H,-0.103 ± 0.084
21,R71D,0.017 ± 0.056
22,R71S,0.018 ± 0.037
23,R71F,0.016 ± 0.066
24,R71N,-0.034 ± 0.062

row,Variant,abundance fitness
1,R70C,-0.051 ± 0.067
2,R70L,0.07 ± 0.056
3,R70P,-0.161 ± 0.061
4,R70Q,0.112 ± 0.053
5,R70H,-0.004 ± 0.085
6,R70F,0.002 ± 0.12
7,R70E,0.135 ± 0.038
8,R70S,0.144 ± 0.039
9,R70G,-0.152 ± 0.033
10,I48T,-0.094 ± 0.056
11,I48A,-0.366 ± 0.071
12,I48P,-0.788 ± 0.13
13,I48S,-0.286 ± 0.052
14,L65V,-0.019 ± 0.035
15,L65Y,-0.069 ± 0.069
16,L65Q,0.029 ± 0.048
17,L65M,-0.069 ± 0.047
18,L65K,-0.342 ± 0.06
19,L65N,-0.322 ± 0.089
20,T39P,-0.359 ± 0.18
21,T39S,0.113 ± 0.087
22,R30A,-0.091 ± 0.18
23,R30L,-0.195 ± 0.12
24,R30H,-0.359 ± 0.49

row,Variant,abundance fitness
1,R30C,0.067 ± 0.31
2,C59I,-1 ± 0.31
3,C59E,-0.696 ± 0.078
4,C59A,-0.668 ± 0.062
5,C59V,-0.729 ± 0.068
6,C59R,-0.848 ± 0.069
7,E22D,-0.025 ± 0.1
8,E22L,-0.089 ± 0.066
9,K66M,0.055 ± 0.043
10,K66N,0.058 ± 0.062
11,K66V,0.041 ± 0.035
12,K66C,-0.229 ± 0.056
13,T20G,-0.242 ± 0.039
14,T20A,-0.051 ± 0.042
15,T20V,0.156 ± 0.038
16,T20S,0.067 ± 0.046
17,T20N,-0.191 ± 0.14
18,T20F,-0.106 ± 0.15
19,T20L,-0.084 ± 0.05
20,G68H,-0.775 ± 0.18
21,G68I,-0.494 ± 0.1
22,G68Q,-0.731 ± 0.1
23,G68D,-0.728 ± 0.11
24,G68P,-0.939 ± 0.15

row,Variant,abundance fitness
1,G68M,-0.624 ± 0.084
2,F19Y,0.352 ± 0.15
3,F19R,-0.098 ± 0.052
4,G23S,-0.174 ± 0.23
5,G23Y,0.152 ± 0.45
6,G23H,0.287 ± 0.17
7,C64T,-0.758 ± 0.11
8,C64W,-0.675 ± 0.077
9,C64K,-0.866 ± 0.13
10,Q50K,0.097 ± 0.062
11,Q50N,0.012 ± 0.11
12,Q50M,-0.088 ± 0.062
13,Q50T,-0.076 ± 0.069
14,Q50F,-0.299 ± 0.17
15,Q50C,-0.078 ± 0.071
16,Q50R,-0.119 ± 0.036
17,Q50V,-0.086 ± 0.041
18,N45P,0.015 ± 0.16
19,N45M,-0.245 ± 0.38
20,N45C,-0.202 ± 0.16
21,D9R,-0.018 ± 0.067
22,D9I,-0.203 ± 0.17
23,D9G,-0.057 ± 0.049
24,D9N,-0.099 ± 0.15

row,Variant,abundance fitness
1,D9V,-0.304 ± 0.072
2,V5K,0.31 ± 0.11
3,V5P,0.381 ± 0.32
4,V5T,0.104 ± 0.11
5,V5H,0.185 ± 0.19
6,V5S,0.149 ± 0.073
7,V67F,-0.115 ± 0.067
8,V67I,-0.093 ± 0.07
9,V67Q,0.036 ± 0.046
10,V67P,-0.953 ± 0.14
11,F27T,-1.1 ± 0.26
12,F27W,-0.733 ± 0.15
13,F27K,-0.968 ± 0.33
14,H15N,0.148 ± 0.24
15,H15G,-0.101 ± 0.093
16,H15T,-0.28 ± 0.25
17,H15Q,-0.052 ± 0.17
18,H15V,-0.135 ± 0.12
19,H15P,0.125 ± 0.16
20,V6W,-0.545 ± 0.11
21,V6G,-0.807 ± 0.091
22,V6E,-0.836 ± 0.13
23,V6R,-0.974 ± 0.13

# — the Human Domainome abundance scans (Beltran et al. 2025)
